Measurements reported in patent US20200299408A1 (Genentech, published 2020).
Positions count from the first letter of the chain named.

Legend:
Test in all cases: SPR (Biacore 4000): CD3εγ variant captured from the periplasmic fraction on UCHT1v9; analyte a bispecific antibody with one 38E4v1 arm and one irrelevant arm, 0.39-100 nM
E5A = molecular target: T1, E5A
T1 construct: Residue number counts from the N-terminus of CD3ε; also called CD3εγ E5A; CD3 mutant E5A
T1 single chain CD3ε-26mer linker-CD3γ: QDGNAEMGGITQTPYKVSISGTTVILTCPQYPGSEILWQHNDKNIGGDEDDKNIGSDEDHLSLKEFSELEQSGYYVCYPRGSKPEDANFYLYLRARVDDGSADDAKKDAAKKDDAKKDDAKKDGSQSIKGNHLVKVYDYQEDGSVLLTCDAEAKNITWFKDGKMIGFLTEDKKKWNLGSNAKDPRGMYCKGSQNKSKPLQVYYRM
Experimental: (§1) The secreted CD3εγ variants were captured from the crude periplasmic fraction using anti-CD3 antibody UCHT1v9. UCHT1v9 was immobilized on a CM5 serios S chip through amine coupling using the anti-human IgG (Fc) antibody capture kit (BR-1008-39) from GE Healthcare. SPR measurements were performed on the Biacore 4000 instrument, utilizing kinetic evaluation software. In order to measure monovalent binding affinities, anti-CD3 bispecific antibodies were used in which one arm was the anti-CD3 to be tested and the arm recognized an irrelevant antigen. The bispecific anti-CD3 antibodies were passed over the captured supernatant in a concentration series of two-fold dilutions from 0.39 to 100 nM. The resulting kinetics (FIG. 13D) were measured and calculated using Biacore 4000 BIAevaluation software (product code 28-9664-57).

G3A = molecular target: T2, G3A
T2 construct: Residue number counts from the N-terminus of CD3ε; also called CD3εγ G3A; CD3 mutant G3A
T2 single chain CD3ε-26mer linker-CD3γ: T1 single chain CD3ε-26mer linker-CD3γ with G3A, A5E
Experimental: as §1

N4A = molecular target: T3, N4A
T3 construct: Residue number counts from the N-terminus of CD3ε; also called CD3εγ N4A; CD3 mutant N4A
T3 single chain CD3ε-26mer linker-CD3γ: T1 single chain CD3ε-26mer linker-CD3γ with N4A, A5E
Experimental: as §1

G9A = molecular target: T4, G9A
T4 construct: Residue number counts from the N-terminus of CD3ε; also called CD3εγ G9A
T4 single chain CD3ε-26mer linker-CD3γ: T1 single chain CD3ε-26mer linker-CD3γ with A5E, G9A
Experimental: as §1

Q1A = molecular target: T5, Q1A
T5 construct: Residue number counts from the N-terminus of CD3ε; also called CD3εγ Q1A; CD3 mutant Q1A
T5 single chain CD3ε-26mer linker-CD3γ: T1 single chain CD3ε-26mer linker-CD3γ with Q1A, A5E
Experimental: as §1

M7A = molecular target: T6, M7A
T6 construct: Residue number counts from the N-terminus of CD3ε; also called CD3εγ M7A
T6 single chain CD3ε-26mer linker-CD3γ: T1 single chain CD3ε-26mer linker-CD3γ with A5E, M7A
Experimental: as §1

Kd (E5A): 7 nM | Kd (G3A): 7 nM | Kd (N4A): 3 nM | Kd (G9A): 6 nM | Kd (Q1A): 1000 nM | Kd (M7A): 13 nM
B1: hu38E4.v1 Fab (Fab, V domains shown)
VH: EVQLVQSGAEVKKPGASVKVSCKASGFTFTSYYIHWVRQAPGQGLEWIGWIYPENDNTKYNEKFKDRVTITADTSTSTAYLELSSLRSEDTAVYYCARDGYSRYYFDYWGQGTLVTVSS
VL: DIVMTQSPDSLAVSLGERATINCKSSQSLLNSRTRKNYLAWYQQKPGQSPKLLIYWTSTRKSGVPDRFSGSGSGTDFTLTISSLQAEDVAVYYCKQSFILRTFGQGTKVEIK
notes: Humanized anti-CD3 Fab; Point mutants of it were expressed as Fabs in HEK293 cells
